Test results taken from the supplement of paper PMC5998384.

What was measured:
[1] = tested on: HeLa Kyoto; assay: thermal stability score vs G1/S (z-score of summed log2 fold changes over temperatures); higher = more thermally stable than in G1/S
[2] = tested on: HeLa Kyoto; assay: solubility change mitosis vs G1/S (difference of NP-40 vs SDS log2 ratios) (log2 ratio difference); higher = more soluble in mitosis
[3] = tested on: HeLa Kyoto; assay: melting temperature (median over replicates), in situ; higher = more thermally stable
[4] = tested on: HeLa Kyoto; assay: solubility in G1/S (NP-40 vs SDS abundance) (log2 ratio); higher = more soluble; conditions: cell cycle stage: G1/S
[5] = cell cycle stage: early G1 (4.5 h after nocodazole release)
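For melting temperature (median over replicates), in situ in this document: HeLa Kyoto cells synchronized by double thymidine or nocodazole block, proteins quantified by TMT10plex mass spectrometry, three independent biological replicates.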
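For solubility change mitosis vs G1/S (difference of NP-40 vs SDS log2 ratios) in this document: synchronized HeLa Kyoto cells (double thymidine block for G1/S, nocodazole release for mitosis), protein amounts in NP-40 versus SDS lysates quantified by mass spectrometry, three biological replicates.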
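For solubility in G1/S (NP-40 vs SDS abundance) in this document: HeLa Kyoto cells arrested at G1/S by double thymidine block, proteins quantified by TMT10plex mass spectrometry in mild NP-40 versus SDS extracts, three biological replicates.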
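For thermal stability score vs G1/S (z-score of summed log2 fold changes over temperatures) in this document: synchronized HeLa Kyoto cells, proteins quantified by TMT10plex mass spectrometry, three biological replicates, mitosis taken 0.5 h after nocodazole release, G1/S directly after double thymidine block.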

Chain of SLTM (chain, as listed by the source): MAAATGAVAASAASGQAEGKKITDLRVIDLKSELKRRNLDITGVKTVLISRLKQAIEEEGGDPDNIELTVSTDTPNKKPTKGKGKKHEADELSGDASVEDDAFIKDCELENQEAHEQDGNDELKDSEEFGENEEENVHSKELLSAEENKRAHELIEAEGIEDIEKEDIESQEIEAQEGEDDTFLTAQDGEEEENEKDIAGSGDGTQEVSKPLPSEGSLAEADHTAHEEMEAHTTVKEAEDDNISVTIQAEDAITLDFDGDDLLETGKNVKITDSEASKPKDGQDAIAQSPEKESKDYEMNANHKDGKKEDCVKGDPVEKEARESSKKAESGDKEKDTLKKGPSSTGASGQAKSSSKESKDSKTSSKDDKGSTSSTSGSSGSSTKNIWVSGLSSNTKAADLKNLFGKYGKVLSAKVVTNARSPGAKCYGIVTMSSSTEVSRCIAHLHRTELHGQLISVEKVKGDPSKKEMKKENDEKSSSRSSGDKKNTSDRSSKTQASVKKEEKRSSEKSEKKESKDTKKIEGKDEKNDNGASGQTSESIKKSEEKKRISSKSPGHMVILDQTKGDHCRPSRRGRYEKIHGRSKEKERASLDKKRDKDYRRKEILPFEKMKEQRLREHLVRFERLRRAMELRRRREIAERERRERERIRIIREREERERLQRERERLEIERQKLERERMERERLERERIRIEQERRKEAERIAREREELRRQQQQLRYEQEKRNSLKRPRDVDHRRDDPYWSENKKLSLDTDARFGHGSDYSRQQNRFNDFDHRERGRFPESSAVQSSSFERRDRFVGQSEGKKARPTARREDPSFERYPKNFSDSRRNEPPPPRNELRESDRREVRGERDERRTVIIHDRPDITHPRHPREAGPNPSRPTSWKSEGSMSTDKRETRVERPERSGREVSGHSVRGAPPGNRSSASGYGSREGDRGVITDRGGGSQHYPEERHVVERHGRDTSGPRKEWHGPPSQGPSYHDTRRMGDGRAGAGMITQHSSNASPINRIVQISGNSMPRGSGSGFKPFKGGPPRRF
Chain of CYCS (chain, as listed by the source): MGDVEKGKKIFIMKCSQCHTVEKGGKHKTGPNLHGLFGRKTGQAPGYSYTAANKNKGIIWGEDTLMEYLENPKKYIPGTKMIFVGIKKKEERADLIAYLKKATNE

Substance | thermal stability score [1, 5] | thermal stability score ([1]; cell cycle stage: mitosis) | solubility change mitosis (log2) [2] | melting temperature ([3]; cell cycle stage: G1/S) | melting temperature ([3]; cell cycle stage: mitosis) | solubility in G1/S (log2) [4]
MKCFFPVLSCLAVLGVVSAQRQVTVQEGPLYRTEGSHITIWCNVSGYQGPSEQNFQWSIYLPSSPEREVQIVSTMDSSFPYAIYTQRVRGGKIFIERVQGNSTLLHITDLQARDAGEYECHTPSTDKQYFGSYSAKMNLVVIPDSLQTTAMPQTLHRVEQDPLELTCEVASETIQHSHLSVAWLRQKVGEKPVEVISLSRDFMLHSSSEYAQRQSLGEVRLDKLGRTTFRLTIFHLQPSDQGEFYCEAAEWIQDPDGSWYAMTRKRSEGAVVNVQPTDKEFTVRLETEKRLHTVGEPVEFRCILEAQNVPDRYFAVSWAFNSSLIATMGPNAVPVLNSEFAHREARGQLKVAKESDSVFVLKIYHLRQEDSGKYNCRVTEREKTVTGEFIDKESKRPKNIPIIVLPLKSSISVEVASNASVILEGEDLRFSCSVRTAGRPQGRFSVIWQLVDRQNRRSNIMWLDRDGTVQPGSSYWERSSFGGVQMEQVQPNSFSLGIFNSRKEDEGQYECHVTEWVRAVDGEWQIVGERRASTPISITALEMGFAVTAISRTPGVTYSDSFDLQCIIKPHYPAWVPVSVTWRFQPVGTVEFHDLVTFTRDGGVQWGDRSSSFRTRTAIEKAESSNNVRLSISRASDTEAGKYQCVAELWRKNYNNTWTRLAERTSNLLEIRVLQPVTKLQVSKSKRTLTLVENKPIQLNCSVKSQTSQNSHFAVLWYVHKPSDADGKLILKTTHNSAFEYGTYAEEEGLRARLQFERHVSGGLFSLTVQRAEVSDSGSYYCHVEEWLLSPNYAWYKLAEEVSGRTEVTVKQPDSRLRLSQAQGNLSVLETRQVQLECVVLNRTSITSQLMVEWFVWKPNHPERETVARLSRDATFHYGEQAAKNNLKGRLHLESPSPGVYRLFIQNVAVQDSGTYSCHVEEWLPSPSGMWYKRAEDTAGQTALTVMRPDASLQVDTVVPNATVSEKAAFQLDCSIVSRSSQDSRFAVAWYSLRTKAGGKRSSPGLEEQEEEREEEEEEDDDDDDDPTERTALLSVGPDAVFGPEGSPWEGRLRFQRLSPVLYRLTVLQASPQDTGNYSCHVEEWLPSPQKEWYRLTEEESAPIGIRVLDTSPTLQSIICSNDALFYFVFFYPFPIFGILIITILLVRFKSRNSSKNSDGKNGVPLLWIKEPHLNYSPTCLEPPVLSIHPGAID [IGSF3] | -2.57 | -2.96 | -0.047 | 54.3 °C | 53.8 °C | -0.0153
MALASVLERPLPVNQRGFFGLGGRADLLDLGPGSLSDGLSLAAPGWGVPEEPGIEMLHGTTTLAFKFRHGVIVAADSRATAGAYIASQTVKKVIEINPYLLGTMAGGAADCSFWERLLARQCRIYELRNKERISVAAASKLLANMVYQYKGMGLSMGTMICGWDKRGPGLYYVDSEGNRISGATFSVGSGSVYAYGVMDRGYSYDLEVEQAYDLARRAIYQATYRDAYSGGAVNLYHVREDGWIRVSSDNVADLHEKYSGSTP [PSMB5] | -2.01 | -3.9 | -0.142 | 63.3 °C | 61.5 °C | -0.00915
ARFGEF2 | 0.0515 | -0.274 | -0.155 | 50.7 °C | 50.5 °C | -0.186
SLTM | 0.205 | 2.43 | 0.595 | 51.1 °C | 51.4 °C | -1.17
MANEAYPCPCDIGHRLEYGGLGREVQVEHIKAYVTKSPVDAGKAVIVIQDIFGWQLPNTRYIADMISGNGYTTIVPDFFVGQEPWDPSGDWSIFPEWLKTRNAQKIDREISAILKYLKQQCHAQKIGIVGFCWGGTAVHHLMMKYSEFRAGVSVYGIVKDSEDIYNLKNPTLFIFAENDVVIPLKDVSLLTQKLKEHCKVEYQIKTFSGQTHGFVHRKREDCSPADKPYIDEARRNLIEWLNKYM [CMBL] | -0.107 | -0.238 | -0.08 | 53.5 °C | 52.8 °C | 0.267
MAAAGVVSGKIIYEQEGVYIHSSCGKTNDQDGLISGILRVLEKDAEVIVDWRPLDDALDSSSILYARKDSSSVVEWTQAPKERGHRGSEHLNSYEAEWDMVNTVSFKRKPHTNGDAPSHRNGKSKWSFLFSLTDLKSIKQNKEGMGWSYLVFCLKDDVVLPALHFHQGDSKLLIESLEKYVVLCESPQDKRTLLVNCQNKSLSQSFENLLDEPAYGLIQAGLLDRRKLLWAIHHWKKIKKDPYTATMIGFSKVTNYIFDSLRGSDPSTHQRPPSEMADFLSDAIPGLKINQQEEPGFEVITRIDLGERPVVQRREPVSLEEWTKNIDSEGRILNVDNMKQMIFRGGLSHALRKQAWKFLLGYFPWDSTKEERTQLQKQKTDEYFRMKLQWKSISQEQEKRNSRLRDYRSLIEKDVNRTDRTNKFYEGQDNPGLILLHDILMTYCMYDFDLGYVQGMSDLLSPLLYVMENEVDAFWCFASYMDQMHQNFEEQMQGMKTQLIQLSTLLRLLDSGFCSYLESQDSGYLYFCFRWLLIRFKREFSFLDILRLWEVMWTELPCTNFHLLLCCAILESEKQQIMEKHYGFNEILKHINELSMKIDVEDILCKAEAISLQMVKCKELPQAVCEILGLQGSEVTTPDSDVGEDENVVMTPCPTSAFQSNALPTLSASGARNDSPTQIPVSSDVCRLTPA [TBC1D15] | -0.47 | 0.539 | -0.17 | 49.7 °C | 50.2 °C | -0.164
CYCS | -1.79 | -2.79 | 0.139 | 57.1 °C | 52.2 °C | -0.131
MASPPRHGPPGPASGDGPNLNNNNNNNNHSVRKCGYLRKQKHGHKRFFVLRGPGAGGDEATAGGGSAPQPPRLEYYESEKKWRSKAGAPKRVIALDCCLNINKRADAKHKYLIALYTKDEYFAVAAENEQEQEGWYRALTDLVSEGRAAAGDAPPAAAPAASCSASLPGALGGSAGAAGAEDSYGLVAPATAAYREVWQVNLKPKGLGQSKNLTGVYRLCLSARTIGFVKLNCEQPSVTLQLMNIRRCGHSDSFFFIEVGRSAVTGPGELWMQADDSVVAQNIHETILEAMKALKELFEFRPRSKSQSSGSSATHPISVPGARRHHHLVNLPPSQTGLVRRSRTDSLAATPPAAKCSSCRVRTASEGDGGAAAGAAAAGARPVSVAGSPLSPGPVRAPLSRSHTLSGGCGGRGSKVALLPAGGALQHSRSMSMPVAHSPPAATSPGSLSSSSGHGSGSYPPPPGPHPPLPHPLHHGPGQRPSSGSASASGSPSDPGFMSLDEYGSSPGDLRAFCSHRSNTPESIAETPPARDGGGGGEFYGYMTMDRPLSHCGRSYRRVSGDAAQDLDRGLRKRTYSLTTPARQRPVPQPSSASLDEYTLMRATFSGSAGRLCPSCPASSPKVAYHPYPEDYGDIEIGSHRSSSSNLGADDGYMPMTPGAALAGSGSGSCRSDDYMPMSPASVSAPKQILQPRAAAAAAAAVPSAGPAGPAPTSAAGRTFPASGGGYKASSPAESSPEDSGYMRMWCGSKLSMEHADGKLLPNGDYLNVSPSDAVTTGTPPDFFSAALHPGGEPLRGVPGCCYSSLPRSYKAPYTCGGDSDQYVLMSSPVGRILEEERLEPQATPGPSQAASAFGAGPTQPPHPVVPSPVRPSGGRPEGFLGQRGRAVRPTRLSLEGLPSLPSMHEYPLPPEPKSPGEYINIDFGEPGARLSPPAPPLLASAASSSSLLSASSPASSLGSGTPGTSSDSRQRSPLSDYMNLDFSSPKSPKPGAPSGHPVGSLDGLLSPEASSPYPPLPPRPSASPSSSLQPPPPPPAPGELYRLPPASAVATAQGPGAASSLSSDTGDNGDYTEMAFGVAATPPQPIAAPPKPEAARVASPTSGVKRLSLMEQVSGVEAFLQASQPPDPHRGAKVIRADPQGGRRRHSSETFSSTTTVTPVSPSFAHNPKRHNSASVENVSLRKSSEGGVGVGPGGGDEPPTSPRQLQPAPPLAPQGRPWTPGQPGGLVGCPGSGGSPMRRETSAGFQNGLNYIAIDVREEPGLPPQPQPPPPPLPQPGDKSSWGRTRSLGGLISAVGVGSTGGGCGGPGPGALPPANTYASIDFLSHHLKEATIVKE [IRS2] | -0.748 | 0.717 | -0.0828 | 50.4 °C | 50.3 °C | -0.000472
MSEGVDLIDIYADEEFNQDPEFNNTDQIDLYDDVLTATSQPSDDRSSSTEPPPPVRQEPSPKPNNKTPAILYTYSGLRNRRAAVYVGSFSWWTTDQQLIQVIRSIGVYDVVELKFAENRANGQSKGYAEVVVASENSVHKLLELLPGKVLNGEKVDVRPATRQNLSQFEAQARKRECVRVPRGGIPPRAHSRDSSDSADGRATPSENLVPSSARVDKPPSVLPYFNRPPSALPLMGLPPPPIPPPPPLSSSFGVPPPPPGIHYQHLMPPPPRLPPHLAVPPPGAIPPALHLNPAFFPPPNATVGPPPDTYMKASAPYNHHGSRDSGPPPSTVSEAEFEDIMKRNRAISSSAISKAVSGASAGDYSDAIETLLTAIAVIKQSRVANDERCRVLISSLKDCLHGIEAKSYSVGASGSSSRKRHRSRERSPSRSRESSRRHRDLLHNEDRHDDYFQERNREHERHRDRERDRHH [CPSF7] | -1.14 | -2.91 | 0.173 | 51.8 °C | 52.1 °C | -0.309
MAPPSTREPRVLSATSATKSDGEMVLPGFPDADSFVKFALGSVVAVTKASGGLPQFGDEYDFYRSFPGFQAFCETQGDRLLQCMSRVMQYHGCRSNIKDRSKVTELEDKFDLLVDANDVILERVGILLDEASGVNKNQQPVLPAGLQVPKTVVSSWNRKAAEYGKKAKSETFRLLHAKNIIRPQLKFREKIDNSNTPFLPKIFIKPNAQKPLPQALSKERRERPQDRPEDLDVPPALADFIHQQRTQQVEQDMFAHPYQYELNHFTPADAVLQKPQPQLYRPIEETPCHFISSLDELVELNEKLLNCQEFAVDLEHHSYRSFLGLTCLMQISTRTEDFIIDTLELRSDMYILNESLTDPAIVKVFHGADSDIEWLQKDFGLYVVNMFDTHQAARLLNLGRHSLDHLLKLYCNVDSNKQYQLADWRIRPLPEEMLSYARDDTHYLLYIYDKMRLEMWERGNGQPVQLQVVWQRSRDICLKKFIKPIFTDESYLELYRKQKKHLNTQQLTAFQLLFAWRDKTARREDESYGYVLPNHMMLKIAEELPKEPQGIIACCNPVPPLVRQQINEMHLLIQQAREMPLLKSEVAAGVKKSGPLPSAERLENVLFGPHDCSHAPPDGYPIIPTSGSVPVQKQASLFPDEKEDNLLGTTCLIATAVITLFNEPSAEDSKKGPLTVAQKKAQNIMESFENPFRMFLPSLGHRAPVSQAAKFDPSTKIYEISNRWKLAQVQVQKDSKEAVKKKAAEQTAAREQAKEACKAAAEQAISVRQQVVLENAAKKRERATSDPRTTEQKQEKKRLKISKKPKDPEPPEKEFTPYDYSQSDFKAFAGNSKSKVSSQFDPNKQTPSGKKCIAAKKIKQSVGNKSMSFPTGKSDRGFRYNWPQR [EXOSC10] | 4.13 | 7.46 | 0.289 | 46.6 °C | 48.7 °C | -0.517
LAMB2 | 2.43 | 3.75 | -0.116 | 53 °C | 53.9 °C | 0.034
